Measurements taken from article PMC6467514.

Tests used:
[1] = substrate: Nc1ncnc2c1ncn2[C@@H]1O[C@H](CO)[C@@H](O)[C@H]1O; assay: stopped-flow absorbance Michaelis-Menten kinetics; type: biochemical, Bos taurus
[2] = substrate: Nc1ncnc2c([C@@H]3O[C@H](CO)[C@@H](O)[C@H]3O)snc12; assay: stopped-flow fluorescence Michaelis-Menten kinetics; type: biochemical, Bos taurus

B1: adenosine deaminase (ADA) (Bos taurus) (protein)
chain: AQTPAFNKPKVELHVHLDGAIKPETILYYGRKRGIALPADTPEELQNIIGMDKPLSLPEFLAKFDYYMPAIAGCREAVKRIAYEFVEMKAKDGVVYVEVRYSPHLLANSKVEPIPWNQAEGDLTPDEVVSLVNQGLQEGERDFGVKVRSILCCMRHQPSWSSEVVELCKKYREQTVVAIDLAGDETIEGSSLFPGHVKAYAEAVKSGVHRTVHAGEVGSANVVKEAVDTLKTERLGHGYHTLEDATLYNRLRQENMHFEVCPWSSYLTGAWKPDTEHPVVRFKNDQVNYSLNTDDPLIFKSTLDTDYQMTKNEMGFTEEEFKRLNINAAKSSFLPEDEKKELLDLLYKAYGMPSPASAEQCL
With B1 as the protein, how does the Km [1] read?
The Km was 25.1 ± 3.2 µM.

And the Km [2]?
Its Km is 18.8 ± 3.2 µM.
